Experimental data published in article PMC5862903.

What was measured:
Experiment in all cases: ELISA
Details in all cases: 0.5 μg coated receptor, read off a plot
[1] = biological target: Manduca sexta CR12 CAD fragment corresponding to cadherin repeat 12 (CAD-CR12)
[2] = biological target: Manduca sexta aminopeptidase N 1 (APN1), recombinant
[3] = biological target: Manduca sexta alkaline phosphatase (ALP), recombinant

In the case of “Cry1Ab wild type toxin (from UniProt P0A370) G439D”, the response ([1]; toxin 6.25 nM, parent: est. 0.46) is reported as 0.12 ABS (490), the response ([1]; toxin 12.5 nM, parent: est. 0.76) is reported as 0.2 ABS (490) and the response ([1]; toxin 25 nM, parent: est. 1.3) is reported as 0.45 ABS (490). For the same substance, the response ([1]; toxin 50 nM, parent: est. 2.0) was 0.76 ABS (490), the response ([1]; toxin 100 nM, parent: est. 2.4) was 1.2 ABS (490) and the response ([2]; toxin 6.25 nM, parent: est. 0.27) was 0.09 ABS (490 nm). For the same substance, the response ([2]; toxin 12.5 nM, parent: est. 0.48) was 0.12 ABS (490 nm), the response ([2]; toxin 25 nM, parent: est. 0.95) was 0.27 ABS (490 nm) and the response ([2]; toxin 50 nM, parent: est. 1.6) was 0.61 ABS (490 nm). The response ([2]; toxin 100 nM, parent: est. 2.1) was 1.1 ABS (490 nm), the response ([3]; toxin 6.25 nM, parent: est. 0.23) was 0.03 ABS (490) and the response ([3]; toxin 12.5 nM, parent: est. 0.39) was 0.05 ABS (490). For the same substance, the response ([3]; toxin 25 nM, parent: est. 0.75) was 0.13 ABS (490), the response ([3]; toxin 50 nM, parent: est. 1.5) was 0.34 ABS (490) and the response ([3]; toxin 100 nM, parent: est. 2.2) was 0.68 ABS (490).
